Data on one molecule can be found in patent US20220033498A1 (UNIVERSITY OF TOKYO, published 2022).

The test addresses T1, mouse CHL1 protein expressed on the surface of HEK293 cells transfected with mChl1 pIRES2-EGFP (mouse, UniProt P70232 26-1209).
T1 construct: whole, on cells; also called CHL1 protein on cell surface; cell adhesion molecule L1-like
T1 sequence (looked up): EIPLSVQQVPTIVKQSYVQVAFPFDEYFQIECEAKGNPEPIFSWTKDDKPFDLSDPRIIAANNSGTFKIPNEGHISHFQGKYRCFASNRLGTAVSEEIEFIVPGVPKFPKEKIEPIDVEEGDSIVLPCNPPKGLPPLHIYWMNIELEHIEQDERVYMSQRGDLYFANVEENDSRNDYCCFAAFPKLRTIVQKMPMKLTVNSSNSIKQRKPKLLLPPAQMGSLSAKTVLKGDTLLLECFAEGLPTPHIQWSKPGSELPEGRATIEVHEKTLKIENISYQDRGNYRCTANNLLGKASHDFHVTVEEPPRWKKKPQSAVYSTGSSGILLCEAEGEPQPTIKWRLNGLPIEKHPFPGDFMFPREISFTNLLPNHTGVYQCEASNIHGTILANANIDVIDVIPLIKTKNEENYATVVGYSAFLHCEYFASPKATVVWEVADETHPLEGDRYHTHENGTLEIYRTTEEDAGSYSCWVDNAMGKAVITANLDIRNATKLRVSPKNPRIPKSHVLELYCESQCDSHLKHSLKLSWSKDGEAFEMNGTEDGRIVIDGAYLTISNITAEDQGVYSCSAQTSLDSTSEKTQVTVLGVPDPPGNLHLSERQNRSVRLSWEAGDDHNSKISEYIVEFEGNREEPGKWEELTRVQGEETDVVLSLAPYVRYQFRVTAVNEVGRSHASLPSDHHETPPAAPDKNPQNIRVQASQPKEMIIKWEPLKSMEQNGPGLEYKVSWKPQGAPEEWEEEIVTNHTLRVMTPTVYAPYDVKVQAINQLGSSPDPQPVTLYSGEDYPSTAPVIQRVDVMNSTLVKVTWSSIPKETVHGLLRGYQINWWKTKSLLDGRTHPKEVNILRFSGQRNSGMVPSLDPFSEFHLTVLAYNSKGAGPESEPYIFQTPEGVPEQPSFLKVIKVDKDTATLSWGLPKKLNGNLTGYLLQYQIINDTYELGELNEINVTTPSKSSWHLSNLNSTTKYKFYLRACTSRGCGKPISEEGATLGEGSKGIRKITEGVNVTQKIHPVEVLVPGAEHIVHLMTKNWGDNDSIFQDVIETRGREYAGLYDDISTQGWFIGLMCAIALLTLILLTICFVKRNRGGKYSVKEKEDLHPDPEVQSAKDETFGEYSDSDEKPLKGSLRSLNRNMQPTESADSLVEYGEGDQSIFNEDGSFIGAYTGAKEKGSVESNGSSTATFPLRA
As to the kind of experiment: FACS: hybridoma culture supernatant on HEK293 cells transfected with mChl1 pIRES2-EGFP, detected with APC goat anti-rat IgG. From the text:
Mouse CHL1 gene (mChl1) was cloned into pIRES2-EGFP vector by PCR using Phusion (Thermo Fisher Scientific Inc.: F530L). Y3Ag cells ([…]) were transfected with mChl1 pIRES2-EGFP by electroporation, and four 7-week-old female or male SD rats (CLEA Japan, Inc.) were immunized from their footpads and tail roots with a mixture of the cells with TiterMax Gold (Funakoshi Co., Ltd.: G-1X5). After 3 to 8 immunizations, inguinal lymph nodes or iliac lymph nodes were isolated, and their cells were fused with AG8 myeloma cells using PEG1500 (Roche: 10783641001). The obtained hybridomas were screened in HAT medium (DS Pharma Biomedical Co., Ltd.: 16-808-49) or HT medium (DS Pharma Biomedical Co., Ltd.: 16-809-49) under conditions supplemented with BM condimed H1 (Roche: 11088947001). The culture supernatants were collected and reacted with HEK293 cells transfected with mChl1 pIRES2-EGFP. Then, antibody titers in the supernatants were studied by FACS analysis using APC goat anti-Rat IgG (BioLegend, Inc.: 405407).
A general note: In flow cytometry, cells or beads pass a laser one at a time.

B1: 336 antibody, a monoclonal antibody to the CHL1 protein (antibody, V domains shown)
VH: EVQLQQSGPELQRPGASVKLSCKASGYPFTEYYIYWMKQRPKQGLELIGRIDPEDGSTDYVEKFKNKATLTADTSSNTAYMQLSSLTSEDTATYFCARALQGFAYWGQGTLVTVSS
VL: EIVLTQSPTTMAASPGEKVTLTCRASSSVSYMYWYLQKSGTSPKLWIYDTSRLASGIPDRFSGSGSGTSYSLTISSMETEDTATYYCQQGGSYPYTFGAGTKLELKR
notes: Rat monoclonal antibody from SD rats immunized with Y3Ag cells expressing mouse CHL1; Used as hybridoma culture supernatant in the FACS screen, and as protein G-purified antibody from ascitic fluid in later work
For the molecule B1, the binding result is reported as “binds”.
